Source: patent US20030149244A1 (Genentech, published 2003)

Experiments:
human IgE [1] = molecular target: T1, human IgE (human, UniProt P01854 1-546, FITC-, biotin- or 125I-labelled in some assays); test: FACS, blocking of FITC-IgE binding to FcεRII (CD23) on IM9 cells
[2] = molecular target: membrane IgE on U266B1 cells (human, UniProt P01854 1-546); test: FACS on membrane IgE+ U266B1 cells
human IgE [3] = molecular target: T1, human IgE; test: soluble receptor ELISA, ratio of 50% inhibition concentrations
human IgE [4] = molecular target: T1, human IgE; test: as above; remark: listed apart in the source

T1 sequence (P01854 whole entry): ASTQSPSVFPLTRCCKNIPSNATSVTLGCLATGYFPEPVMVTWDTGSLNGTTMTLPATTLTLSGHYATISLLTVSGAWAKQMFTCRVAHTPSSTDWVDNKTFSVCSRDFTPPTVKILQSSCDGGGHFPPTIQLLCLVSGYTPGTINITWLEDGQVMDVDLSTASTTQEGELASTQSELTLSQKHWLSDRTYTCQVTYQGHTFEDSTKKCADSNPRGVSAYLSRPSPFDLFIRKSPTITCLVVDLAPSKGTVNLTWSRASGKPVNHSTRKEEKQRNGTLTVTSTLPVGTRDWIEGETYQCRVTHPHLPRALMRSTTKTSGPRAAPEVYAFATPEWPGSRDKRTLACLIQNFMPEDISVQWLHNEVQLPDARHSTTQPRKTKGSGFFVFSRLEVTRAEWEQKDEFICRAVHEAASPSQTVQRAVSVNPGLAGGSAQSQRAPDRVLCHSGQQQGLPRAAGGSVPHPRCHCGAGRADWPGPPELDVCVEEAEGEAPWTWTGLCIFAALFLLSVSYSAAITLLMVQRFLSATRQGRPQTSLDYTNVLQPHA
Chain of membrane IgE on U266B1 cells (P01854 whole entry, one chain of several): as the sequence (P01854 whole entry) above

Row | Binder | EC50 (human IgE [1]) [µg/mL] | EC50 [2] [µg/mL] | ratio F(ab)-X / F(ab)-2 (human IgE [3]) | ratio F(ab)-X / MaE11 (human IgE [3]) | ratio Variant X / IgG1-2 (human IgE [4]) | ratio Variant X / MaE11 (human IgE [4])
1 | MaE13 (antibody, V domains shown) VH: DVQLQESGPGLVKPSQSLSLTCTVTGYTITSDNAWNWIRQFPGNKLEWMGYINHSGTTSYNPSLKSRISITRDTSKNQFFLQLNSVTTEDTATYYCAWVVAYAMDYWGQGTSVTVSS VL: DIVMTQSQKFMSTSVGDRVSVTCKASQNVSSNVAWYQQKPGQSPKALIYSASYRYSGVPDRFTGSGSGTDFTLTISNVQSEDLAEYFCQQYYTYPLYTFGGGTKLEIK | 0.7 | 1 | – | – | – | –
2 | MaE15 (antibody, V domains shown) VH: DVQHQESEPDLVKPSQSLSLTCTVTGYSITSGYNRHWIRQFPGNKLEWMGYIHYSGSTNYNPSLKRRISITRDTSKNQFFLQLNSVTTEDTATYYCARGSIYYYGSRYRYFDVWGAGTTVTVSS VL: DIQLTQSPASLAVSLGQRATISCKASQSVDYDGDSYMNWYQQKPGQPPKLLIYAASNLESGIPARFSGSGSGTDFTLNIHPVEEEDAATYYCQQSNEDPFTFGAGT | 0.6 | 6 | – | – | – | –
3 | MaE11 (antibody, mouse IgG1, V domains shown, murine IgG1; also called murine MaE11; MeE11) VH: DVQLQESGPGLVKPSQSLSLACSVTGYSITSGYSWNWIRQFPGNKLEWMGSITYDGSSNYNPSLKNRISVTRDTSQNQFFLKLNSATAEDTATYYCARGSHYFGHWHFAVWGAGTTVTVSS VL: DIQLTQSPASLAVSLGQRATISCKASQSVDYDGDSYMNWYQQKPGQPPILLIYAASYLGSEIPARFSGSGSGTDFTLNIHPVEEEDAATFYCQQSHEDPYTFGAGTKLEIK | – | – | 0.03 | 1 | 0.06 | 1
